IntAct's records for PubMed 16115628

B1: 1-phosphatidylinositol 4,5-bisphosphate phosphodiesterase delta-1 (Homo sapiens), P51178 (parent)
chain: MDSGRDFLTLHGLQDDEDLQALLKGSQLLKVKSSSWRRERFYKLQEDCKTIWQESRKVMRTPESQLFSIEDIQEVRMGHRTEGLEKFARDVPEDRCFSIVFKDQRNTLDLIAPSPADAQHWVLGLHKIIHHSGSMDQRQKLQHWIHSCLRKADKNKDNKMSFKELQNFLKELNIQVDDSYARKIFRECDHSQTDSLEDEEIEAFYKMLTQRVEIDRTFAEAAGSGETLSVDQLVTFLQHQQREEAAGPALALSLIERYEPSETAKAQRQMTKDGFLMYLLSADGSAFSLAHRRVYQDMGQPLSHYLVSSSHNTYLLEDQLAGPSSTEAYIRALCKGCRCLELDCWDGPNQEPIIYHGYTFTSKILFCDVLRAIRDYAFKASPYPVILSLENHCTLEQQRVMARHLHAILGPMLLNRPLDGVTNSLPSPEQLKGKILLKGKKLGGLLPPGGEGGPEATVVSDEDEAAEMEDEAVRSRVQHKPKEDKLRLAQELSDMVIYCKSVHFGGFSSPGTPGQAFYEMASFSENRALRLLQESGNGFVRHNVGHLSRIYPAGWRTDSSNYSPVEMWNGGCQIVALNFQTPGPEMDVYQGRFQDNGACGYVLKPAFLRDPNGTFNPRALAQGPWWARKRLNIRVISGQQLPKVNKNKNSIVDPKVTVEIHGVSRDVASRQTAVITNNGFNPWWDTEFAFEVVVPDLALIRFLVEDYDASSKNDFIGQSTIPLNSLKQGYRHVHLMSKNGDQHPSATLFVKISLQD

Variants of: B1
Settings: with imb1_human KPNB1, Q14974
imb1_human KPNB1, Q14974, sequence (Q14974 whole entry): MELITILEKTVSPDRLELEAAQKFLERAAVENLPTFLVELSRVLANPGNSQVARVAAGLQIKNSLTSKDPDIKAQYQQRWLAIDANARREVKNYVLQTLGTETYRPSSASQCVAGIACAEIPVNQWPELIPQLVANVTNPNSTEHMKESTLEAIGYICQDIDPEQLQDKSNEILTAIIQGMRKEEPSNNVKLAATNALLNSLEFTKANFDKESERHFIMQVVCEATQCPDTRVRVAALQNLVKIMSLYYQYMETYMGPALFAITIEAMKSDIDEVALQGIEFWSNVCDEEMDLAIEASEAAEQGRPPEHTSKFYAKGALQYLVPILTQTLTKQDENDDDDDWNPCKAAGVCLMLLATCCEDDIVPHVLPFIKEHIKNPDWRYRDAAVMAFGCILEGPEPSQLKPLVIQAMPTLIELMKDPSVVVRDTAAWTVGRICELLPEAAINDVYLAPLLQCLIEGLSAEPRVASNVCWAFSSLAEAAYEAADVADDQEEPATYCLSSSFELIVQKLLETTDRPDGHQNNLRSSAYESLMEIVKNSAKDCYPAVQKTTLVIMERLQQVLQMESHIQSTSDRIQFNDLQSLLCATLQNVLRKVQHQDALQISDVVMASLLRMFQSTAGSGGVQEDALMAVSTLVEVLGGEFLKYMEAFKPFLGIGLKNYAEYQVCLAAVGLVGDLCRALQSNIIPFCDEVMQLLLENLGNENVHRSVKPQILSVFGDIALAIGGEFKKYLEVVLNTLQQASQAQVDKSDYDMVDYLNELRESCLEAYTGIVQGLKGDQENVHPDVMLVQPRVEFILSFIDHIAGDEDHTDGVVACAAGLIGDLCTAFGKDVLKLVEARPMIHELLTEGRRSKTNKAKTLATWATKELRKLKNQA
With E341A the “effect of a mutation on the interaction” value was “decreasing interaction”.
